Publication PMC11156904, “Nucleic acid mediated activation of a short prokaryotic Argonaute immune system”
Where “and” joins values, the source holds several entries; their conditions need not be identical. Identical values can stand only once.

Tests used:
[1] = target: SPARTA heterodimer (TIR-APAZ/short pAgo complex) from Crenotalea thermophila (Crenotalea thermophila); assay: cryo-EM structure; SPARTA oligomer bound to gRNA/tDNA, nominal 3.15-3.35 Å
[2] = target: SPARTA heterodimer (TIR-APAZ/short pAgo complex) from Crenotalea thermophila (Crenotalea thermophila); assay: mass photometry; CrtSPARTA incubated with gRNA/tDNA (5 mM MgCl2, 55 °C, 12 hours), 100-fold diluted, in 20 mM HEPES pH 7.5, 100 mM KCl, 2 mM DTT
[3] = target: T1, CrtSPARTA TIR-APAZ;CrtSPARTA short pAgo (CrtAgo) (Crenotalea thermophila;Crenotalea …, UniProt A0A1I7NFG5;A0A1I7NFD7 1-450;1-507, |); assay: cryo-EM structure; 5 mM MgCl2; Mg2+ seen in MID pocket; 4 heterodimers, one duplex each; 20 mM HEPES pH 7.5, 100 mM KCl, 1 mM DTT, 5 mM MgCl2; 1.5 mg/ml SPARTA, 16 uM gRNA 37 C 1 h, then 16 uM tDNA 55 C 12 h; conditions: protein: recombinant;recombinant; tags: 6xHis-MBP removed by TEV;none stated on this chain; copies: 1;1; 21 bp; tDNA 5' overhang 23 nt and 3' overhang 1 nt; guide loaded first, then target
T1 sequence 1: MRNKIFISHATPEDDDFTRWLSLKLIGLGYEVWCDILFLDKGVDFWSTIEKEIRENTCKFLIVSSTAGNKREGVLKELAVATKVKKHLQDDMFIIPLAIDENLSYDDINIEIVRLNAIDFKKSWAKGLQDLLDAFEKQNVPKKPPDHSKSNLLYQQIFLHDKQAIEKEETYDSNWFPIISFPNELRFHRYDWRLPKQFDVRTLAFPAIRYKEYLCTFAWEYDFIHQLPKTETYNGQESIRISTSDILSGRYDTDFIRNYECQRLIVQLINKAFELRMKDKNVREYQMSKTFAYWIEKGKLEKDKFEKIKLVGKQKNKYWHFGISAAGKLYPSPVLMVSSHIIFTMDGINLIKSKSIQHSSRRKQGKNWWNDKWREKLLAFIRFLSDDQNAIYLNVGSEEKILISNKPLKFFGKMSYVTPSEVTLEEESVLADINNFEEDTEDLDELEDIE
T1 sequence 2: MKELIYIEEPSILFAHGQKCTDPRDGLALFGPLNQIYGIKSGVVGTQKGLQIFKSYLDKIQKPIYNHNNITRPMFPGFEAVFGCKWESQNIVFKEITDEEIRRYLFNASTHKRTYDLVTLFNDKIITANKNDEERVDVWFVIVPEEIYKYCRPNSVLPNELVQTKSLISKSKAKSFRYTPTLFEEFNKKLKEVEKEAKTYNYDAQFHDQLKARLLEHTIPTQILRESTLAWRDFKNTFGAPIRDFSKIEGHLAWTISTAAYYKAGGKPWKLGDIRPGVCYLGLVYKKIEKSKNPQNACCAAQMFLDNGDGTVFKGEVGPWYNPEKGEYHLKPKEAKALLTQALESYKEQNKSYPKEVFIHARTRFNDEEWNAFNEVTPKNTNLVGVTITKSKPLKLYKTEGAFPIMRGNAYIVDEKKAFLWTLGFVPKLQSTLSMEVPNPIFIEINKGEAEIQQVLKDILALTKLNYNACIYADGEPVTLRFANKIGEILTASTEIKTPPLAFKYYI

[4] = target: T2, CrtSPARTA TIR-APAZ;CrtSPARTA short pAgo loop10-9 deletion (Crenotalea thermophila;Crenotalea …, UniProt A0A1I7NFG5;A0A1I7NFD7 1-450;1-507, |del322-327); assay: mass photometry; binds as single heterodimer (~134.6 kDa, expected 132.6); loses dimer formation; 20 mM HEPES pH 7.5, 100 mM KCl, 1 mM DTT, 5 mM MgCl2; 1.5 mg/ml SPARTA, 16 uM gRNA 37 C 1 h, then 16 uM tDNA 55 C 12 h; conditions: protein: recombinant;recombinant; tags: 6xHis-MBP removed by TEV;none stated on this chain; copies: 1;1; 21 bp; tDNA 5' overhang 23 nt and 3' overhang 1 nt; guide loaded first, then target
T2 sequence 1: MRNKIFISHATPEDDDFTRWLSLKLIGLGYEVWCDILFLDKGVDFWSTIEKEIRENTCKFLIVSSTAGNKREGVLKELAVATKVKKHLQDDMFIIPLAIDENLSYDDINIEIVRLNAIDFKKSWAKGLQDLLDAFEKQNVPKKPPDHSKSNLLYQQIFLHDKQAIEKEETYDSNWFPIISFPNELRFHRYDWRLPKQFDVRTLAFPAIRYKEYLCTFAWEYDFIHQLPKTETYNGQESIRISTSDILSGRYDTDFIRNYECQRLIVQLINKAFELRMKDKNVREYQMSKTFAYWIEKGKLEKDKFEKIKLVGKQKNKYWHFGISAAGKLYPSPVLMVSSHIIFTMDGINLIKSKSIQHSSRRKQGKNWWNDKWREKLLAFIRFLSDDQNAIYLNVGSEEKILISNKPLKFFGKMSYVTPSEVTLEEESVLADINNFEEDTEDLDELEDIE
T2 sequence 2: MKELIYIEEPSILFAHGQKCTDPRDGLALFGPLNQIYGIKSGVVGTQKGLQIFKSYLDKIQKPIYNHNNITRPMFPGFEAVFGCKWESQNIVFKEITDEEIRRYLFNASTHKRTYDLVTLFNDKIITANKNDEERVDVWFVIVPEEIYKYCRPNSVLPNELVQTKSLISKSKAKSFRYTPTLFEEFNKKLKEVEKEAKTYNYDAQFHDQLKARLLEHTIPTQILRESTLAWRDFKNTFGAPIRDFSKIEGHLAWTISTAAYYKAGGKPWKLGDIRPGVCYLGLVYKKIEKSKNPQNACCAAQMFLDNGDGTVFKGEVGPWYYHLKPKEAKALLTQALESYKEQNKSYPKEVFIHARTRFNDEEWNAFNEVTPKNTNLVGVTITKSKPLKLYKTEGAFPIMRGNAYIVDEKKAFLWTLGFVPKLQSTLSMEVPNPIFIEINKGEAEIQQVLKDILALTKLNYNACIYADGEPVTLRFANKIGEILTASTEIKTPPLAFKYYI

Row | Molecule | stoichiometry N [1] | stoichiometry N [2] | binding result [3] | binding result [4]
1 | SPARTA heterodimer (TIR-APAZ/short pAgo complex) from Crenotalea thermophila | 4 | 2 and 4 | – | –
2 | gRNA/tDNA duplex (DNA:RNA, 5'-phosphate on guide RNA) RNA: UGAGGUAGUAGGUUGUAUAGU DNA: AAACGACGGCCAGTGCCAAGCTTACTATACAACCTACTACCTCAT | – | – | binds | binds
